Tests used:
human RANKL [1] = target: T1, human RANKL (human, UniProt O14788 140-317, limits assumed); test: BLI (Gator), antibody on anti-hFc biosensor, antigen as analyte, 1:1 global fit
T1 construct: Analyte in BLI; also called hRANKL; TNFSF11
T1 sequence (looked up): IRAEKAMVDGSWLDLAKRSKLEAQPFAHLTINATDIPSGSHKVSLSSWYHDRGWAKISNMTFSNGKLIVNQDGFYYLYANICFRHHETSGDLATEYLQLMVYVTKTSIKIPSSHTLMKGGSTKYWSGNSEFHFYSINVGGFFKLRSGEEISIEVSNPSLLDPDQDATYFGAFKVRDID
Protocol: (§1) Binding kinetics and affinities of anti-Sclerostin×anti-DKK1 and anti-Sclerostin×anti-RANKL bispecific antibodies were measured with Gator (Probe Life) bio-layer interferometry (BLI). Antibodies were immobilized on an anti-hFc biosensor, using a 5 μg/ml solution. Serial dilutions of sclerostin (from 1 μg/ml), DKK1 (from 2 μg/ml), or RANKL (from 4 μg/ml) by two folds in kinetics buffer (PBS, pH 7.4, 0.05% Tween-20, 0.2% BSA) were used as the analytes. Affinity (KD) and kinetic parameters (Kₒₙ and Koff) were calculated from a global fit (1:1) of the data using the Gator software.

human Sclerostin [2] = target: T2, human Sclerostin (human, UniProt Q9BQB4 24-213); test: as above
T2 construct: Analyte of the BLI assays and the protein added in the reporter assays; also called hSclerostin; SOST
T2 sequence: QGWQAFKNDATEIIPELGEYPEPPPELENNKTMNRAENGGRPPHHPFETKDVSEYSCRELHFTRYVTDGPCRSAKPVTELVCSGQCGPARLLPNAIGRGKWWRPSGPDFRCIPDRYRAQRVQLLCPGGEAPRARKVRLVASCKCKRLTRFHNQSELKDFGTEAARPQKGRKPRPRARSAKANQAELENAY
Protocol: as §1

human RANKL [3] = target: T1, human RANKL; test: BLI (Gator), antibody on anti-hFc biosensor, antigen as analyte; koff at LOD, KD estimated
Protocol: as §1

human Sclerostin [4] = target: T2, human Sclerostin; test: as above
Protocol: as §1

B1: BAP0069 (bispecific antibody, human IgG4 S228P, kappa, F234A L235A)
heavy: EVQLVQSGAEVKKPGASVKVSCKASGYTFTDYEIHWVRQAPGKGLEWMGAIDPETGGTAYNQKFKGRVTMTTDTSTSTAYMELRSLRSDDTAVYYCYSYDYVTYWGQGTTVTVSSASTKGPSVFPLAPCSRSTSESTAALGCLVKDYFPEPVTVSWNSGALTSGVHTFPAVLQSSGLYSLSSVVTVPSSSLGTKTYTCNVDHKPSNTKVDKRVESKYGPPCPPCPAPEAAGGPSVFLFPPKPKDTLMISRTPEVTCVVVDVSQEDPEVQFNWYVDGVEVHNAKTKPREEQFNSTYRVVSVLTVLHQDWLNGKEYKCKVSNKGLPSSIEKTISKAKGQPREPQVYTLPPSQEEMTKNQVSLTCLVKGFYPSDIAVEWESNGQPENNYKTTPPVLDSDGSFFLYSKLTVDKSRWQEGNVFSCSVMHEALHNHYTQKSLSLSPGKGGGGSGGGGSGGGGSEIVLTQSPGTLSLSPGERATLSCRASQSVRGRYLAWYQQKPGQAPRLLIYGASSRATGIPDRFSGSGSGTDFTLTISRLEPEDFAVFYCQQYGSSPRTFGCGTKVEIKGGGGSGGGGSGGGGSGGGGSEVQLLESGGGLVQPGGSLRLSCAASGFTFSSYAMSWVRQAPGKCLEWVSGITGSGGSTYYADSVKGRFTISRDNSKNTLYLQMNSLRAEDTAVYYCAKDPGTTVIMSWFDPWGQGTLVTVSA
light: DVVMTQSPLSLSVSPGERASLSCKSSQSLLYSDGRTYLNWYLQKPGQSPQRLIYLVSKLDSGVPDRFSGSGSGTDFTLKISRVQSEDVGVYYCWQGTHLPHTFGGGTKVEIKRTVAAPSVFIFPPSDEQLKSGTASVVCLLNNFYPREAKVQWKVDNALQSGNSQESVTEQDSKDSTYSLSSTLTLSKADYEKHKVYACEVTHQGLSSPVTKSFNRGEC
notes: Anti-RANKL scFv (VL-VH, Denosumab) fused to the C-terminus of the heavy chains of the anti-Sclerostin full length antibody (hAb-1)
Human RANKL [1]
  kon: 86700 M⁻¹ s⁻¹
Human Sclerostin [2]
  kon: 757000 M⁻¹ s⁻¹
Human RANKL [3]
  Kd: ~0.01 nM
Human Sclerostin [4]
  Kd: ~0.01 nM

— patent publication US20230312755A1 (ANGITIA, published 2023)
